Values of other authors, collected in paper PMC4703387, “Identification of the Calmodulin-Binding Domains of Fas Death Receptor” (PLoS ONE, 2016).

Target: T1, Ca^2+/CaM (Homo sapiens, UniProt P0DP23)
T1 construct: made in house
Details: ref [32]
Source text: We have also shown that both lobes of Ca^2+/CaM are important for FasDD binding. […] Our attempt to identify the interaction regions by ... || To identify the Ca^2+/CaM-binding regions in large proteins is not a simple task. To predict the Ca^2+/CaM-binding site, a web-based tool is often used to provide favorable scores based on multiple criteria including hydropathy, α-helical propensity, hydrophobic residue content, residue charge, residue weight, helical class and occurrence of particular residues.[39] However, this method can still provide biased results.

B1: FasDD: intracellular death domain of Fas (protein)
chain: SKYITTIAGVMTLSQVKGFVRKNGVNEAKIDEIKNDNVQDTAEQKVQLLRNWHQLHGKKEAYDTLIKDLKKANLCTLAEKIQTII
stoichiometry of Ca^2+/CaM–FasDD complex: two Ca^2+/CaM molecules binding simultaneously to FasDD
